The values that follow come from patent US20160222124A1 (published 2016).

Changes are numbered by the printed parent chain.

Assay [1] addresses T1, human CD40 (cellular) (human, UniProt P25942 21-277). Briefly: flow cytometry; RAMOS cells; humanized per legend.
Target sequence in this assay (P25942 21-277): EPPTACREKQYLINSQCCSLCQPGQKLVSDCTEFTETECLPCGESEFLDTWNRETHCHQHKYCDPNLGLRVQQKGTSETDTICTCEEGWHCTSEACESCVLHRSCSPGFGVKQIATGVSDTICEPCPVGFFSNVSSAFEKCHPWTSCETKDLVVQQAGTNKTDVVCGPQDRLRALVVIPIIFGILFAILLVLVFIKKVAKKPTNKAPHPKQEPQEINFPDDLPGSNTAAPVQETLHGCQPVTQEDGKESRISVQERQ
Assay [2] addresses T1, human CD40 (cellular). Briefly: flow cytometry; CD40-transfected HEK-293 cells; humanized 19B10. For orientation: A flow cytometer gives signals particle by particle.
For assay [3], the target named is T1, human CD40 (cellular). Nature of the assay: flow cytometry; CD40-transfected HEK-293 cells; humanized 10F2.
Assay [4] concerns the target T1, human CD40 (cellular). Nature of the assay: flow cytometry; CD40-transfected HEK-293 cells.
A further assay concerns the target B cells Human (human, UniProt P25942 21-277). Nature of the assay: flow cytometry, whole blood; human B cells.
In another assay the target is Platelets Human (human, UniProt P25942 21-277). Briefly: flow cytometry, whole blood; human platelets.
For a further assay, the target named is T2, B cells Cynomolgus (cynomolgus monkey, UniProt G7PG38 21-278).
T2 chain: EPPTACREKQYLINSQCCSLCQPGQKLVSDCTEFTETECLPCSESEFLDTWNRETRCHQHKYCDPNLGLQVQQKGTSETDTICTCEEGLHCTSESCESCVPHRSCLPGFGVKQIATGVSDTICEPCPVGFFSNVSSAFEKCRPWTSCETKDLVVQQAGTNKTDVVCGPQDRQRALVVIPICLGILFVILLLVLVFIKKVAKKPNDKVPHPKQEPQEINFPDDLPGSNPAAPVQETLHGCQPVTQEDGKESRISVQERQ
Nature of the assay: flow cytometry, whole blood; cynomolgus B cells.

A further assay has as its target T3, Platelets Cynomolgus (cynomolgus monkey, UniProt G7PG38 21-278).
T3 chain: T2 chain
Briefly: flow cytometry, whole blood; cynomolgus platelets.

B1: 19B10 (antibody, V domains shown)
VH: EVQLQQSGAELVRPGASVQLSCTASGFNIKDYYVHWVKQRPEKGLEWIGRIDPEDGDTKFAPKFQGKATMTADTSSNTVYLHLSSLTSEDTAVYYCTTSYYVGTYGYWGQGTTLTVSS
VL: QIVLTQSPAIMSASPGEKVTITCSASSSVSYMLWFQQKPGTSPKLWIYSTSNLASGVPARFSGSGSGTSYSLTISRMEAEDAATYYCQQRTFYPYTFGGGTKLEIK
In general, EC50 refers to the concentration needed to bring the measured effect to its halfway point. A higher EC50 goes with a need for much substance. In the case of B1, the half-maximal effective concentration (EC50) was determined as 0.36 nM with human CD40 (cellular) [1] and 1.1 nM with human CD40 (cellular) [2].

B2: 10F2 (antibody, V domains shown)
VH: B1 VH with Q19K, V34I, F60Y, A61D, V79A
VL: B1 VL with A9T, T20I, S26T, M32I, T68A
In the case of B2, the EC50 with human CD40 (cellular) [1] was 0.21 nM; with human CD40 (cellular) [3], 1.9 nM.

B3: 2H11 (antibody, V domains shown)
VH: B1 VH with Q19K, T58S, F60Y, V79A
VL: B1 VL with S62G
Regarding B3, the concentration for a half-maximal effect (EC50) in the assay with human CD40 (cellular) [1] was 0.32 nM.

B4: Antibody C (antibody, V domains shown)
VH: QVQLVQSGAEVKKPGASVKVSCTASGFNIKDYYVHWVKQAPGQGLEWMGRIDPEDGDSKYAPKFQGKATMTADTSTSTVYMELSSLRSEDTAVYYCTTSYYVGTYGYWGQGTLVTVSS
VL: DIQMTQSPSSLSASVGDRVTITCSASSSVSYMLWFQQKPGKAPKLLIYSTSNLASGVPSRFSGSGSGTDFTLTISSLQPEDFATYYCQQRTFYPYTFGGGTKVEIKR
With B4, the 50% effective concentration (EC50) with human CD40 (cellular) [4] came to 1.9 nM.

B5: 4D11 (antibody, V domains shown)
VH: QLQLQESGPGLLKPSETLSLTCTVSGGSISSPGYYGGWIRQPPGKGLEWIGSIYKSGSTYHNPSLKSRVTISVDTSKNQFSLKLSSVTAADTAVYYCTRPVVRYFGWFDPWGQGTLVTVSS
VL: AIQLTQSPSSLSASVGDRVTITCRASQGISSALAWYQQKPGKAPKLLIYDASNLESGVPSRFSGSGSGTDFTLTISSLQPEDFATYYCQQFNSYPTFGQGTKVEIK
Consider B5, for which the EC50 was determined as 0.3 nM with B cells Human, 0.7 nM with Platelets Human, 0.7 nM in the assay with B cells Cynomolgus and 1.2 nM in the assay with Platelets Cynomolgus.

B6: Antibody A (antibody, V domains shown)
VH: EVQLVESGGGLVKPGGSLRLSCAASGFTFSDYGMHWVRQAPGKGLEWVAYISSGNRIIYYADTVKGRFTISRDNAKNSLYLQMNSLRAEDTALYYCARQDGYRYAMDYWAQGTLVTVSS
VL: DIVMTQSPDSLAVSLGERATMSCKSSQSLLNSGNQKNYLTWHQQKPGQPPKLLIYWTSTRESGVPDRFSGSGSGTDFTLTISSLQAEDVAVYYCQNDYTYPLTFGGGTKVEIKR
Regarding B6, the half-maximal effective concentration (EC50) with human CD40 (cellular) [4] turned out to be 1.1 nM.

B7: 20E2 (antibody, V domains shown)
VH: B6 VH with L18R, R19K, G42E, S78T, Y80F, N84T, A88S, A110G, L114S
VL: DIVMTQSPSSLTVTAGEKVTMSCKSSQSLLNSGNQKNYLTWHQQKPGQPPKLLIYWTSTRESGVPDRFTGSGSGTDFTLTISNLQAEDLAVYYCQNDYTYPLTFGAGTKLELK
In the assay with human CD40 (cellular) [1], B7 displayed an EC50 of 1.22 nM.
